# Measured values reported in patent US20250041326A1, “THERAPEUTIC AGENT FOR REFRACTORY VIRAL INFECTIONS” (TOKYO METROPOLITAN INSTITUTE OF MEDICAL SCIENCE, priority 2021, published 2025).
# Key:
# HBV [1] = test: cccDNA in HepG2 cells stably expressing HBV; type: cell-based, human; conditions: 5 days, IRF1 plasmid 0.5 μg/well, IFN-lambda 1 100 ng/mL, or supernatant every day
# Protocol: HepG2 cells made susceptible to HBV infection (HepG2-hNTCP-30 cells) were transfected with a 1.3-fold longer gene of HBV genotype C to prepare cells stably expressing HBV.
# The primary human hepatocyte-derived human IRF1 gene (GenBank Accession No. NM_002198.3) was cloned into a pCI-neo Mammalian Expression Vector (Promega) to construct an IRF1 plasmid.
# Using Lipofectamine 3000 (Invitrogen), the IRF1 plasmid (0.5 μg/well) was introduced by reverse transfection into HepG2 cells stably expressing HBV (2×10^5 cells/well, 48-well plate).
# As an empty plasmid, a pCI-neo Mammalian Expression Vector was used.
# Using the culture supernatant of the HepG2 cells stably expressing HBV (2×10^5 cells/well, 48-well plate) transfected with the IRF1 plasmid or the empty plasmid (0.5 μg/well), untransfected HepG2 cells stably expressing HBV (2×10^5 cells/well, 48-well plate) were treated every day for 5 days. Likewise, HepG2 cells stably expressing HBV were treated for 5 days with a medium containing recombinant human IFN-lambda 1 (100 ng/mL, R&D systems).
# DNA in the cells were extracted by the sodium iodide method. […]
# (§1) were used, and the Plasmid-Safe ATP-dependent DNase-treated product (equivalent to 50 ng total DNA) was measured according to the protocol of THUNDERBIRD Probe qPCR Mix (TOYOBO). […]
# HBV [2] = test: rcDNA and cccDNA in HBV-infected primary human hepatocytes treated with IFNλ1 protein; type: cell-based; conditions: primary human hepatocytes persistently infected with HBV, 15 days treatment
# Protocol: Primary human hepatocytes persistently infected with HBV were treated with IFNλ1 protein for 15 days, and rcDNA and cccDNA were quantified.
# Primary human hepatocytes persistently infected with HBV for 22 days or longer (PhoenixBio Co., Ltd., Japan) were cultured in a medium containing recombinant human IFN-lambda 1 (R&D systems) with medium replacement every 5 days, and the cells were collected after 15 days.
# DNA in the cells were extracted by the sodium iodide method.
# The cells were mixed with 200 μL of lysis buffer (10 mM EDTA, 500 mM 2-mercaptoethanol, 50 mM Tris-HCl, 75 mM KCl, 5% sarcosyl, 0.1 μg/μL protease K, pH 8.0), followed by heating at 55° C. for 20 minutes. After addition of 300 μL of a NaI solution (40 mM Tris-HCl, 20 mM EDTA, 7.6 M sodium iodide, coprecipitant), the mixture was allowed to stand at room temperature for 15 minutes. After addition of 600 μL of mixed alcohols (40% isopropanol, 60% 1-butanol), the mixture was cooled on ice for 15 minutes. The mixture was centrifuged at 4° C. at 15,000×g for 20 minutes to precipitate DNA. […]
# were used, and an aliquot equivalent to 250 ng gDNA was measured according to the protocol of THUNDERBIRD Probe qPCR Mix (TOYOBO). […]
# as §1
molecule,measurement,setting,value
"IFNλ1 protein: recombinant human IFN-lambda 1 (R&D systems) (protein, UniProt Q8IU54 20-200, looked up) Interferon lambda-1: GPVPTSKPTTTGKGCHIGRFKSLSPQELASFKKARDALEESLKLKNWSCSSPVFPGNWDLRLLQVRERPVALEAELALTLKVLEAAAGPALEDVLDQPLHTLHHILSQLQACIQPQPTAGPRPRGRLHHWLHRLQEAPKKESAGCLEASVTFNLFRLLTRDLKYVADGNLCLRTSTHPEST",cccDNA,HBV [1],not reduced
same,cccDNA levels,HBV [2],reduced in a manner dependent on the amount
same,rcDNA levels,HBV [2],reduced in a manner dependent on the amount
